Data published in US20050287527A1, “Quantitative ranking of transient ligand binding to target biomolecules” (National Research Council of Canada, priority 2002, published 2005).

Molecular target: Recombinant Cdc42 (residues 1-178) from Candida Albicans (Candida albicans) (UniProt P0CY33)
Assay: method not stated; the complexes give no response in relaxation dispersion

Chain of Recombinant Cdc42 (residues 1-178) from Candida Albicans (Candida albicans) (P0CY33 1-178 limits assumed): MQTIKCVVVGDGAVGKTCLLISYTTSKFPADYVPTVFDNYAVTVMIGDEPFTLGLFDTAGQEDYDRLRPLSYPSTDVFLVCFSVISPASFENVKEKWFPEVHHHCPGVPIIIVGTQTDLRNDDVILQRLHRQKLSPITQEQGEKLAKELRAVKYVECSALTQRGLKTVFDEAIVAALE

Row | Substance | Kd
1 | 40-residue CRIB domain of Candida Cla4 (peptide) | 0.5 nM
2 | 40-residue CRIB domain of Candida Ste20 (peptide) | 0.5 nM
